Test system: MS2 coat protein
Assay: apparent KD of MS2 coat protein; designed switch direction (-1 OFF switch, 1 ON switch): -1; higher = weaker reporter binding
Summary of the method: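 Designed RNA switches with common flanks were transcribed on Illumina chips by stalled E. coli RNA polymerase and titrated with SNAP-549-labelled MS2 coat protein, from 0.7 or 1.5 nM doubling to 3 µM, in Tris-HCl pH 7.5 buffer with KCl, MgCl2, BSA, DTT, tRNA and Tween-20. Steps lasted 0.8–1.5 h (lowest) to 10–20 min (highest). Titrations ran without input, with 200 uM small-molecule ligand, or with an oligonucleotide input. Normalised cluster fluorescence was curve-fitted, and apparent KD is the per-design median over clusters.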

[1] = input ligand: microRNA oligo, concentration not stated
[2] = Eterna round: R95, input ligand: microRNA oligo, concentration not stated
[3] = Eterna round: R95, input ligand: FMN 200 uM
[4] = Eterna round: R95, input ligand: none

Row | Sequence | apparent KD of MS2 coat protein (input ligand: FMN 200 uM) [nM] | apparent KD of MS2 coat protein [1] [nM] | apparent KD of MS2 coat protein (input ligand: none) [nM] | apparent KD of MS2 coat protein [2] [nM] | apparent KD of MS2 coat protein [3] [nM] | apparent KD of MS2 coat protein [4] [nM]
1 | UUCGUGUAAGGAUAUACGACCCAUCCCAUUGGGAUGGGCACGUAGAAGGUACAUGAGGAUCACCCAUGUGCUCC [Ceacequa] (Eterna round: R96, puzzle: Exclusion 4) | 298 | 34.4 | 41.4 |  |  | 
2 | GGUACACAUGAGGAUCACCCAUGUCAGGAUAUCUGGAUACUCUUUAUUUUAGAUAUCCAGAGAAGGGACGUGCC [Ex1-3: 9Z] (puzzle: Exclusion 1) |  |  |  | 29.7 |  | 
3 | CCCGUGUAAGGAUAUCGUUCACUUGACAAAAGUCAAGUGAACGAGAAGGUACAUGAGGAUCACCCAUGUACGGG [-33.8, -33.4 kcal, A 32%] (Eterna round: R97, puzzle: Exclusion 4) | 418 |  | 571 |  |  | 
4 | GCUGGGUCAGGAUAUACAAGAUCGAAAGAUCAAAGAUUCGUACAUGAGGAUCACCCAUGUAGAAGGGACUGGGC [ChP 11-04-2015 #8] (puzzle: Exclusion 2) |  |  |  | 17.2 |  | 
5 | GAGAACUGAGGAUAUACAUGAGGAUCACCCAUGUUGAGAAGAAAGUAUAAAAGAUUGUGUAGAAGGCAGAGAGA [JR_Ex3_Sub069] (Eterna round: R97, puzzle: Exclusion 3) | 52.3 |  | 35.8 |  |  | 
6 | ACACUACAUGAGGAUCACCCAUGUCAGGAUAUCGAUAUCACAACUCAUCAACCUCACUCGAGAAGGGACACAUA [wifeneedsadrink] (puzzle: Exclusion 1) |  |  |  | 22.1 |  | 
7 | ACAUGAGGAUCACCCAUGUACAGGGUUUAGUUUCAUCGUUUGAAGGAUAUACACUGUUAGUUGUCGUAGAAGGUCACUGAUUGG [JR_ExcNG3_Sub010] (Eterna round: R96, puzzle: Exclusion NG 3) | 93.9 | 93.3 | 130 |  |  | 
8 | CGGCAAAGGAAGGAUAUGCUAGACGAUAGUCUAGCAGAAGGUCCUACAUGAGGAUCACCCAUGUGUCCUAGCCG [Mat - Exclusion 6 - Eli Mod - D9] (Eterna round: R97, puzzle: Exclusion 6) | 49.6 |  | 44.3 |  |  | 
9 | GUUAGACAUGAGGAUCACCCAUGUGAGGAUAUGAUGCGAUCGUGAUGAAAUGAUCGCAUCAGAAGGCACAUAUG [Mat - Mod of JL D67] (puzzle: Exclusion 1) |  |  |  | 123 |  | 
10 | ACAUGAGGAUCACCCAUGUGAAAGAAAUGGCUGACUUUGAGCUAGGAUAUUUGUGCAUAUCAAACAAAGAAGGAGCAUUACUGG [Deportation 99 - Jieux - Exclusion NG 3] (Eterna round: R96, puzzle: Exclusion NG 3) | 20.4 | 16.9 | 20.6 |  |  | 
11 | AAUGAUUGACGAGGAUAUUGUGGUAAAACACGACGAGAAGGCGUAUGUCACAUGAGGAUCACCCAUGUGAGCUUUGUGGAUAUA [Ex NG1 #71] (Eterna round: R96, puzzle: Exclusion NG 1) | 31.4 | 23.4 | 35.5 |  |  | 
12 | CUAGCUUCGGCUAGUACAAGCUUUUUGCUCGUCUUAUUAACAUGAGGAUCACCCAUGUACAAGAGACCUCAUGUAUU [Sensor v3 - turn-off variant 2 - 10] (puzzle: Sensor v3, turn-off variant 2) |  |  |  | 14.6 | 188 | 249
13 | AGGUAACAUGAGGAUCACCCAUGUCAGGAUAUCAGUAAGAUGAGUAUAGAAGAGAGUAUGAGAAGGGACUAUAU [Excluse me! 25 - Jieux - Exclusion 1] (puzzle: Exclusion 1) |  |  |  | 31.2 |  | 
14 | UUUUAGAGAGGAUAUAUAAUGUGAAACAUGAGGAUCACCCAUGUAAUAUUAUGGAUGUAAAUAGAAGGCUCAAUUA [Mat - Exclusion 5 - JL mod - D13] (puzzle: Exclusion 5) |  |  |  | 30.4 | 28.5 | 26.3
15 | GAAUGCAAGUAAAGAUCUUACAUGAGGAUCACCCAUGUGCUCGUCUUAUAAAGUACUAUCACGAAAGUGAUAGUACA [Mat - Sensor v3 - turn-off var 1 - Eli Mod - D90] (puzzle: Sensor v3, turn-off variant 1) |  |  |  | 84.1 | 16.3 | 17.4
16 | GAUUAUGCGAGCUUUAGGGACAUGAGGAUCACCCAUGUUCGUCUUAUUGGUCUGAAUACACUAACAUACCUAAAUCU [JMF 11] (puzzle: Sensor v3, turn-off variant 1) |  |  |  | 33.7 | 17.4 | 21.7
17 | UAUAUAUAGUAAGGAUAUGUAUAUAUUUUAUGAACAGAAGGUACUGACAUGAGGAUCACCCAUGUUUUAGUGUGGGCAUGUAGA [JMF's solution 70] (Eterna round: R96, puzzle: Exclusion NG 1) | 49.4 | 38.8 | 64.8 |  |  | 
18 | GGGAAGGGAGGAUAUGAGGAGGAGAACAUGAGGAUCACCCAUGUGAGGCCUCAGGAUCAAUCAGAAGGCCCGAUCC [AK-MS2ROC-r4-exclusion5-15.1] (Eterna round: R97, puzzle: Exclusion 5) | 78.1 |  | 26 |  |  | 
19 | AAGAAACAUGAGGAUCACCCAUGUGAGGAUAUGCAAGAAAGAAAGAAAGAAAGAAGAAGCAGAAGGCACAAAGG [Gaius Turranius] (Eterna round: R96, puzzle: Exclusion 1) | 84.7 | 29.7 | 50.7 |  |  | 
20 | CCUAUGUGAGGAUAUGUCUGGUCUUCUUUUGUUUUUUACAGACAGAAGGCACAUGAGGAUCACCCAUGUCAGAC [Ex4 - 3 - 47] (puzzle: Exclusion 4) |  |  |  | 17 |  | 
21 | AUGUGCACGCUGCGGUCCUACAUGAGGAUCACCCAUGUGGUCUGGUGGCGUGGGUCACCGGACUUGGCUCGUCUUGC [salish99_S_TOV1_R5_058] (Eterna round: R97, puzzle: Sensor, turn-off variant 1) | 21.4 |  | 21.2 |  |  | 
22 | GGAUUCUCGCAAGGAUAUCGCUUACAUCCUAAGCGAGAAGGUGCUACCAACUUGAGGAUCACCCAAGUGACUUGGGCCUAAAUA [Mutated MS2 EX1.27] (Eterna round: R96, puzzle: Exclusion NG 1) | 112 | 34.2 | 62.9 |  |  | 
23 | GUCACAUGGACAUAGGAUCACAUGAGGAUCACCCAUGUGACUAACAAGCUUUUUGCUCGUCUUAUGUCCAUGUGAAG [Stov1/15-A1] (Eterna round: R97, puzzle: Sensor, turn-off variant 1) | 13.2 |  | 11.7 |  |  | 
24 | GGCAAUAACGAGGAUAUCGUAUCGGAAACGAUACGAGAAGGUGUAACAUGAGGAUCACCCAUGUUCCUUAAGCC [Fiskers Ex 6 - 9] (puzzle: Exclusion 6) |  |  |  | 23.5 |  | 
25 | UCCCGGGUAGGAUAUGCUAGGGUAUGUUCACUUGAUUUAGGACAUGAGGAUCACCCAUGUAGAAGGGCCCGUCG [Eternabot (L1) Solution 25] (Eterna round: R97, puzzle: Exclusion 2) | 286 |  | 459 |  |  | 
26 | AAGAAACAUGAGGAUCACCCAUGUGAGGAUAUGACUAAGAAAAGAAAAGAAAGAAGAUUCAGAAGGCACAAAGG [salish99-ex1_r3_062] (puzzle: Exclusion 1) |  |  |  | 42.3 | 91.2 | 46.1

From the supplement of paper PMC9170038
